{"source": "paper PMC10423226", "about": "“Identification of a drug binding pocket in TMEM16F calcium-activated ion channel and lipid scramblase” (Nature Communications, 2023)", "proteins": {"B1": {"name": "TMEM16F (natural protein, UniProt Q6P9J9 1-911, looked up)", "chain": "MQMMTRKVLLNMELEEDDDEDGDIVLENFDQTIVCPTFGSLENQQDFRTPEFEEFNGKPDSLFFTDGQRRIDFILVYEDESKKENNKKGTNEKQKRKRQAYESNLICHGLQLEATRSVSDDKLVFVKVHAPWEVLCTYAEIMHIKLPLKPNDLKTRSPFGNLNWFTKVLRVNESVIKPEQEFFTAPFEKSRMNDFYILDRDSFFNPATRSRIVYFILSRVKYQVMNNVNKFGINRLVSSGIYKAAFPLHDCRFNYESEDISCPSERYLLYREWAHPRSIYKKQPLDLIRKYYGEKIGIYFAWLGYYTQMLLLAAVVGVACFLYGYLDQDNCTWSKEVCDPDIGGQILMCPQCDRLCPFWRLNITCESSKKLCIFDSFGTLIFAVFMGVWVTLFLEFWKRRQAELEYEWDTVELQQEEQARPEYEAQCNHVVINEITQEEERIPFTTCGKCIRVTLCASAVFFWILLIIASVIGIIVYRLSVFIVFSTTLPKNPNGTDPIQKYLTPQMATSITASIISFIIIMILNTIYEKVAIMITNFELPRTQTDYENSLTMKMFLFQFVNYYSSCFYIAFFKGKFVGYPGDPVYLLGKYRSEECDPGGCLLELTTQLTIIMGGKAIWNNIQEVLLPWVMNLIGRYKRVSGSEKITPRWEQDYHLQPMGKLGLFYEYLEMIIQFGFVTLFVASFPLAPLLALVNNILEIRVDAWKLTTQFRRMVPEKAQDIGAWQPIMQGIAILAVVTNAMIIAFTSDMIPRLVYYWSFSIPPYGDHTYYTMDGYINNTLSVFNITDFKNTDKENPYIGLGNYTLCRYRDFRNPPGHPQEYKHNIYYWHVIAAKLAFIIVMEHIIYSVKFFISYAIPDVSKITKSKIKREKYLTQKLLHESHLKDLTKNMGIIAERIGGTVDNSVRPKLE", "modifications": "glycans on the extracellular loops", "notes": "Sample in lipid nanodiscs (MSP2N2, SoyPC) with PIP2 and 4 mM CaCl2; also called mTMEM16F; TMEM16F dimer; source: HEK293s cells, extracted and purified in DDM/CHS, reconstituted in MSP2N2-SoyPC nanodiscs, FPLC"}}, "molecular_target": "the molecule itself", "assay": "cryo-EM structure; TMEM16F in MSP2N2-SoyPC nanodiscs with PIP2 and 4 mM CaCl2, without drug or with 50 uM niclosamide or 100 uM 1PBC; no C2 symmetry imposed"}
{"protein": "B1", "values": [{"measurement": "stoichiometry N", "result": 2}]}
